Numbered stars: 1 amine (or outer) side, 2 acyl side, 3 side chain; on linkers, the order of the positions; unused ones are H or OH. Bridge positions count the residues as written; N and C are the ends. Square brackets hold non-standard residues; d marks the D form. * marks the point of attachment. C20 diacid = O=C(O)CCCCCCCCCCCCCCCCCCC(=O)*; γGlu = O=C(O)[C@H](CCC(=O)[*:2])N[*:1]; Hyp = O=C(O)[C@@H]1C[C@@H](O)CN1; NMeI = CC[C@H](C)[C@H](NC)C(=O)O; Aad = N[C@@H](CCCC(=O)O)C(=O)O; Orn = NCCC[C@H](N)C(=O)O; Sar = CNCC(=O)O

In assay [1] the target is recombinant human amylin 3 receptor (hAMYR3) (human), P30988. The experiment in a line: cell-based or functional assay.
Assay [2] concerns the target recombinant human calcitonin receptor (hCT-R) (human), P30988. The experiment in a line: cell-based or functional assay.

Chain of recombinant human calcitonin receptor (hCT-R) (human), P30988 (P30988 25-474): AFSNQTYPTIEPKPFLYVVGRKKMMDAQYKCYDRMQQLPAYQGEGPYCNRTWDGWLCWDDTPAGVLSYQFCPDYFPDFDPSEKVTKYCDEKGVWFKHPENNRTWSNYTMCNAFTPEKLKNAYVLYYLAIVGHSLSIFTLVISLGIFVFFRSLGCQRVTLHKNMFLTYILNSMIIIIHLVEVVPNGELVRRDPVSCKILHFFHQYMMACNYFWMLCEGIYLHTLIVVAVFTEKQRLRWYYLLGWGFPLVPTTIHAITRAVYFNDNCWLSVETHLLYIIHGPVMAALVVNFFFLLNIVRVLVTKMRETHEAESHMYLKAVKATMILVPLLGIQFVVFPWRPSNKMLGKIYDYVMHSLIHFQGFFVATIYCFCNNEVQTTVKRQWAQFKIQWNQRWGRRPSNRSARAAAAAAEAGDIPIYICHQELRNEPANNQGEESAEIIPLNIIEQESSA
Chain of recombinant human amylin 3 receptor (hAMYR3) (human), P30988 (P30988 25-474, chain 1 of 2): as the sequence (P30988 25-474) above
Chain of recombinant human amylin 3 receptor (hAMYR3) (human), P30988 (O60896 24-148, chain 2 of 2, further chain): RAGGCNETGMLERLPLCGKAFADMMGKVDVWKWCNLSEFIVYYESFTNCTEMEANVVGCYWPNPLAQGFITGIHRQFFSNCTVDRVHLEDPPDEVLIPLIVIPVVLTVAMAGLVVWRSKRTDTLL

B1: Ref. 2 (peptide)
peptide: {C20 diacid-γGlu}-RCGTATCATERLAHFLQRSSF[Sar]A[NMeI]LSSTEVGSNT[Hyp]-NH2
modifications: disulfide 2-7
SMILES: CC[C@H](C)[C@@H](C(=O)N[C@@H](CC(C)C)C(=O)N[C@@H](CO)C(=O)N[C@@H](CO)C(=O)N[C@H](C(=O)N[C@@H](CCC(=O)O)C(=O)N[C@H](C(=O)NCC(=O)N[C@@H](CO)C(=O)N[C@@H](CC(N)=O)C(=O)N[C@H](C(=O)N1C[C@H](O)C[C@H]1C(N)=O)[C@@H](C)O)C(C)C)[C@@H](C)O)N(C)C(=O)[C@H](C)NC(=O)CN(C)C(=O)[C@H](Cc1ccccc1)NC(=O)[C@H](CO)NC(=O)[C@H](CO)NC(=O)[C@H](CCCNC(=N)N)NC(=O)[C@H](CCC(N)=O)NC(=O)[C@H](CC(C)C)NC(=O)[C@H](Cc1ccccc1)NC(=O)[C@H](Cc1c[nH]cn1)NC(=O)[C@H](C)NC(=O)[C@H](CC(C)C)NC(=O)[C@H](CCCNC(=N)N)NC(=O)[C@H](CCC(=O)O)NC(=O)[C@@H](NC(=O)[C@H](C)NC(=O)[C@@H]1CSSC[C@H](NC(=O)[C@H](CCCNC(=N)N)NC(=O)CC[C@H](NC(=O)CCCCCCCCCCCCCCCCCCC(=O)O)C(=O)O)C(=O)NCC(=O)N[C@@H]([C@@H](C)O)C(=O)N[C@@H](C)C(=O)N[C@@H]([C@@H](C)O)C(=O)N1)[C@@H](C)O
On to B1, for which the hAMYR3 EC50 [nM] (cAMP formation, 1321N1 cells expressing hAMYR3) in assay [1] was found to be 0.003 nM. Also, in assay [2], the hCT-R EC50 [nM] (cAMP formation, 1321N1 cells expressing hCT-R) was 0.019 nM.

B2: Ref. 3 (peptide)
peptide: {C20 diacid-γGlu}-RDGTAT[Orn]ATERLA[Aad]FLQRSSF[Sar]A[NMeI]LSSTEVGSNT[Hyp]-NH2
SMILES: CC[C@H](C)[C@@H](C(=O)N[C@@H](CC(C)C)C(=O)N[C@@H](CO)C(=O)N[C@@H](CO)C(=O)N[C@H](C(=O)N[C@@H](CCC(=O)O)C(=O)N[C@H](C(=O)NCC(=O)N[C@@H](CO)C(=O)N[C@@H](CC(N)=O)C(=O)N[C@H](C(=O)N1C[C@H](O)C[C@H]1C(N)=O)[C@@H](C)O)C(C)C)[C@@H](C)O)N(C)C(=O)[C@H](C)NC(=O)CN(C)C(=O)[C@H](Cc1ccccc1)NC(=O)[C@H](CO)NC(=O)[C@H](CO)NC(=O)[C@H](CCCNC(=N)N)NC(=O)[C@H](CCC(N)=O)NC(=O)[C@H](CC(C)C)NC(=O)[C@H](Cc1ccccc1)NC(=O)[C@H](CCCC(=O)O)NC(=O)[C@H](C)NC(=O)[C@H](CC(C)C)NC(=O)[C@H](CCCNC(=N)N)NC(=O)[C@H](CCC(=O)O)NC(=O)[C@@H](NC(=O)[C@H](C)NC(=O)[C@H](CCCN)NC(=O)[C@@H](NC(=O)[C@H](C)NC(=O)[C@@H](NC(=O)CNC(=O)[C@H](CC(=O)O)NC(=O)[C@H](CCCNC(=N)N)NC(=O)CC[C@H](NC(=O)CCCCCCCCCCCCCCCCCCC(=O)O)C(=O)O)[C@@H](C)O)[C@@H](C)O)[C@@H](C)O
Turning to B2, in assay [1], the hAMYR3 EC50 [nM] (cAMP formation, 1321N1 cells expressing hAMYR3) is 13.2 nM. Further, the hCT-R EC50 [nM] (cAMP formation, 1321N1 cells expressing hCT-R) in assay [2] amounted to 18.2 nM.

These data come from patent US20180071366A1.
